According to patent WO2001094586A2 (dated 2001):
Changes are numbered by the printed parent chain. Blank lines part the entries; values can stand above or below the molecule they belong to.

Legend:
[1] = molecular target: soluble fusion protein of human gp39 (gp39-CD8) (human) (UniProt P29965); experiment: cell-based or functional assay
[2] = molecular target: T1, human gp39 (CD40 ligand), cell-surface (human, UniProt P29965 1-261); experiment: cell-based or functional assay
T1 construct: whole, on cells; also called CD154; mgp39
T1 sequence (looked up): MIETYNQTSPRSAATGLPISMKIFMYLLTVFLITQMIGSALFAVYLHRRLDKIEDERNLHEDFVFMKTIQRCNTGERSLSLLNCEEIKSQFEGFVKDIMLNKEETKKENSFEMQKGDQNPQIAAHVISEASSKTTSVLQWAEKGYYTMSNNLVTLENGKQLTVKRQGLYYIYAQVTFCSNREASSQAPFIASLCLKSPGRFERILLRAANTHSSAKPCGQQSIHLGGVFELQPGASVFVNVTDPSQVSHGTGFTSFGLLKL

[3] = molecular target: T1, human gp39 (CD40 ligand), cell-surface; experiment: Scatchard analysis, 125I-labelled antibody on gp39-CHO cells

- IL-2 production with TRAP-1 (30 ng/mL) and a 4:1 molar excess of soluble CD8-CD40L fusion protein [1]: 1500 pg/mL
- IL-2 production with immobilized anti-CD3 (10 ng/mL) [2]: > 4600 pg/mL
Molecule: TRAP-1, commercial murine anti-CD40L antibody

- Kd [3]: 5.6 nM
B1: humanized 24-31 antibody, version 1 (#1 VL with #1 VH) (antibody, V domains shown)
VH: EVQLQESGPGLVKPSETLSLTCTVSGDSITNGFWIWIRKPPGNKLEYMGYISYSGSTYYNPSLKSRISISRDTSKNQFSLKLSSVTAADTGVYYCACRSYGRTPYYFDFWGQGTTLTVSS
VL: DIVMTQSPSFLSASVGDRVTITCKASQNVITAVAWYQQKPGKSPKLLIYSASNRYTGVPDRFSGSGSGTDFTLTISSLQPEDFADYFCQQYNSYPYTFGGGTKLEIK
notes: also called IDEC131

- Kd [3]: 8.51 nM
B2: murine antibody 24-31 (anti-human gp39 monoclonal antibody) (antibody, V domains shown)
VH: EVQLQESGPSLVKPSQTLSLTCSVTGDSITNGFWIWIRKFPGNKLEYMGYISYSGSTYYNPSLKSRISITRDTSQNQFYLQLNSVTTEDTGTYYCACRSYGRTPYYFDFWGQGTTLTVSS
VL: B1 VL with P8Q, S9K, L11M, A13T, T20S, K42Q, S77N, L78M, P80S, F83L
notes: also called murine 24-31; anti-gp39 24-31 mAb

- Kd [3]: 14 nM
B3: humanized 24-31 antibody, version 2 (#2 VL with #1 VH) (antibody, V domains shown)
VH: B1 VH
VL: DIVMTQSPDSLAVSLGERATINCKASQNVITAVAWYQQKPGQSPKLLIYSASNRYTGVPDRFSGSGSGTDFTLTISSLQAEDVADYFCQQYNSYPYTFGGGTKLEIK
notes: Built in the N5KG1 vector (human kappa and gamma 1 constant regions); also called humanized 24-31 version 2; humanized Version 2
